What was measured:
Assay type in all cases: cell-based, human
[1] = tested on: PBMCs from healthy volunteers; assay: Cytokine release by H1N1-stimulated healthy volunteer PBMCs, 5 days (luminex)
[2] = tested on: PBMCs from healthy volunteers
[3] = tested on: PBMCs from transplant recipients; conditions: IL-28B 100 ng/mL, 2 h before 5-day H1N1; 38 transplant recipients; p = 0.004
[4] = tested on: PBMCs from transplant recipients; assay: Cytokine release by H1N1-stimulated transplant recipient PBMCs, overnight (luminex)
[5] = with IL-28B, 5-day H1N1, HV PBMCs n=9, median (IQR)
[6] = IL-28B 100 ng/mL, overnight H1N1, p=0.04
[7] = IL-28B 100 ng/mL, overnight H1N1, p=0.39
[8] = IL-28B 100 ng/mL, overnight H1N1, p=1.00
[9] = IL-28B 100 ng/mL, overnight H1N1, transplant PBMCs, median (IQR)

B1: IL-28B: recombinant IL-28B, a member of the interferon (IFN)-λ family (protein)
chain: VPVARLRGALPDARGCHIAQFKSLSPQELQAFKRAKDALEESLLLKDCKCRSRLFPRTWDLRQLQVRERPVALEAELALTLKVLEATADTDPALGDVLDQPLHTLHHILSQLRACIQPQPTAGPRTRGRLHHWLHRLQEAPKKESPGCLEASVTFNLFRLLTRDLNCVASGDLCV
modifications: left off: His tag, end not stated, kept
notes: recombinant IL-28B, a member of the interferon (IFN)-λ family
[1]; 5-day H1N1, n = 9
  production of B-cell trophic and Th2 cytokines (in words): significant decrease in the production of cytokines trophic for B-cells such as GRO, Fractalkine, and Th2-cytokines (IL-4, IL-5, IL-9, and IL-13)
[1]; 5-day H1N1, p=0.004
  IFN-α2, ratio IL28/no IL28: 1.7
  sIL2Ra, ratio IL28/no IL28: 0.6
[1]; 5-day H1N1, p=0.008
  Fractalkine, ratio IL28/no IL28: 0.3
  GRO, ratio IL28/no IL28: 0.0
  IL-9, ratio IL28/no IL28: 0.2
[1]; 5-day H1N1, p=0.01
  sCD40L, ratio IL28/no IL28: 0.4
[1]; 5-day H1N1, p=0.02
  IL-5, ratio IL28/no IL28: 0.0
  IL-13, ratio IL28/no IL28: 0.6
[1]; 5-day H1N1, p=0.03
  IL-4, ratio IL28/no IL28: 0.5
  IL-6, ratio IL28/no IL28: 1.3
  TGF-α, ratio IL28/no IL28: 1.3
[1]; 5-day H1N1, p=0.04
  IL-1β, ratio IL28/no IL28: 1.9
[1]; 5-day H1N1, p=0.08
  IP-10, ratio IL28/no IL28: 0.3
[1]; 5-day H1N1, p=0.11
  FLT3, ratio IL28/no IL28: 0.5
[1]; 5-day H1N1, p=0.16
  IL-3, ratio IL28/no IL28: 0.3
  TNF-β, ratio IL28/no IL28: 0.6
[1]; 5-day H1N1, p=0.17
  IL-15, ratio IL28/no IL28: 0.9
[1]; 5-day H1N1, p=0.25
  MCP-3, ratio IL28/no IL28: 1.1
  PDGF AA, ratio IL28/no IL28: 1.0
[1]; 5-day H1N1, p=0.31
  FGF2, ratio IL28/no IL28: 0.8
[1]; 5-day H1N1, p=0.38
  GM-CSF, ratio IL28/no IL28: 0.7
[1]; 5-day H1N1, p=0.43
  IFN-γ, ratio IL28/no IL28: 0.9
[1]; 5-day H1N1, p=0.44
  IL-12p40, ratio IL28/no IL28: 0.7
[1]; 5-day H1N1, p=0.46
  MIP-1β, ratio IL28/no IL28: 1.2
[1]; 5-day H1N1, p=0.47
  Eotaxin, ratio IL28/no IL28: 0.5
[1]; 5-day H1N1, p=0.55
  MCP-1, ratio IL28/no IL28: 0.4
  TNF-α, ratio IL28/no IL28: 1.0
[1]; 5-day H1N1, p=0.64
  IL-12p70, ratio IL28/no IL28: 0.7
[1]; 5-day H1N1, p=0.69
  IL-17, ratio IL28/no IL28: 0.2
[1]; 5-day H1N1, p=0.74
  MIP-1α, ratio IL28/no IL28: 1.1
  RANTES, ratio IL28/no IL28: 1.2
[1]; 5-day H1N1, p=0.75
  G-CSF, ratio IL28/no IL28: 1.0
  IL-7, ratio IL28/no IL28: 1.0
[1]; 5-day H1N1, p=0.82
  IL-1α, ratio IL28/no IL28: 1.1
  IL-10, ratio IL28/no IL28: 1.0
  VEGF, ratio IL28/no IL28: 1.2
[1]; 5-day H1N1, p=0.84
  IL-1ra, ratio IL28/no IL28: 1.1
  IL-2, ratio IL28/no IL28: 2.0
[1]; 5-day H1N1, p=0.95
  IL-8, ratio IL28/no IL28: 0.9
  PDGF AB/BB, ratio IL28/no IL28: 1.3
[1]; 5-day H1N1, p=1.00
  EGF, ratio IL28/no IL28: 1.0
  MDC, ratio IL28/no IL28: 1.0
[1]; in vitro
  Th2-cytokines (in words, abstract): suppressed Th2-cytokines (e.g. IL-4, IL-5, and IL-13)
[1]; [5]
  EGF: 3.7 (3.7-3.7) pg/mL
  Eotaxin: 3.2 (3.2-6.9) pg/mL
  FGF2: 13.1 (3.8-19.2) pg/mL
  FLT3: 4.0 (3.2-9.4) pg/mL
  Fractalkine: 4.2 (0.6-10.7) pg/mL
  G-CSF: 3.2 (3.2-4.2) pg/mL
  GM-CSF: 358.9 (3.2-480.7) pg/mL
  GRO: 3.6 (3.6-3.6) pg/mL
  IFN-α2: 2262.0 (808.2-3663.0) pg/mL
  IFN-γ: 6028.0 (3513.0-9802.0) pg/mL
  IL-1ra: 376.6 (3.2-838.8) pg/mL
  IL-1α: 15.1 (7.8-18.6) pg/mL
  IL-1β: 16.8 (6.8-29.2) pg/mL
  IL-2: 16.5 (0.6-60.4) pg/mL
  IL-3: 0.8 (0.6-3.5) pg/mL
  IL-4: 16.2 (6.1-33.1) pg/mL
  IL-5: 0.6 (0.6-8.3) pg/mL
  IL-6: 215.5 (69.4-864.5) pg/mL
  IL-7: 3.2 (3.2-3.2) pg/mL
  IL-8: 1308.0 (789.8-1567.0) pg/mL
  IL-9: 1.3 (0.6-6.7) pg/mL
  IL-10: 2597.0 (2063.0-4353.0) pg/mL
  IL-12p40: 3.2 (3.2-6.1) pg/mL
  IL-12p70: 1.6 (1.0-2.3) pg/mL
  IL-13: 96.8 (0.6-126.7) pg/mL
  IL-15: 2.7 (1.2-3.0) pg/mL
  IL-17: 0.6 (0.6-30.7) pg/mL
  IP-10: 219.8 (3.2-2804.0) pg/mL
  MCP-1: 53.8 (7.9-145.3) pg/mL
  MCP-3: 9988.0 (8889.0-12741.0) pg/mL
  MDC: 16.0 (16.0-27.2) pg/mL
  MIP-1α: 5759.0 (2283.0-6915.0) pg/mL
  MIP-1β: 3575.0 (1795.0-5820.0) pg/mL
  PDGF AA: 0.6 (0.6 – 0.6) pg/mL
  PDGF AB/BB: 8.9 (1.3-18.2) pg/mL
  RANTES: 3640.0 (1941.0-6677.0) pg/mL
  TGF-α: 11.8 (9.7-17.0) pg/mL
  TNF-α: 297.0 (3.1-449.6) pg/mL
  TNF-β: 12.0 (1.0-27.4) pg/mL
  VEGF: 34.6 (15.6-46.3) pg/mL
  sCD40L: 253.0 (140.1-456.3) pg/mL
  sIL2Ra: 192.2 (140.8-236.1) pg/mL
[2]; abstract, in vitro
  reduction of IgG-production: > 70%
[2]; highest dose of IL-28B (100 ng/mL), 5-day H1N1, n = 8
  lower H1N1-stimulated IgG antibody production: 70%
[3]
  H1N1-induced IgG production with IL-28B (in words): significantly decreased
[4]; IL-28B 100 ng/mL, 2 h before overnight H1N1, n = 36
  H1N1-stimulated Th1-cytokine expression (IFN-γ, IL6): significant increase
[4]; IL-28B 100 ng/mL, overnight H1N1, p=0.001
  IFN-α, ratio IL-28B/no IL-28B: 2.9
[4]; [6]
  IFN-γ, ratio IL-28B/no IL-28B: 2.1
  MIP-1α, ratio IL-28B/no IL-28B: 1.8
  sCD40-L, ratio IL-28B/no IL-28B: 1.0
[4]; IL-28B 100 ng/mL, overnight H1N1, p=0.05
  IL-6, ratio IL-28B/no IL-28B: 2.4
[4]; IL-28B 100 ng/mL, overnight H1N1, p=0.14
  IP-10, ratio IL-28B/no IL-28B: 1.0
[4]; IL-28B 100 ng/mL, overnight H1N1, p=0.33
  MCP-3, ratio IL-28B/no IL-28B: 1.2
[4]; [7]
  Fractalkine, ratio IL-28B/no IL-28B: 5.0
  TNF-α, ratio IL-28B/no IL-28B: 1.9
[4]; IL-28B 100 ng/mL, overnight H1N1, p=0.44
  IL-1β, ratio IL-28B/no IL-28B: 1.0
[4]; IL-28B 100 ng/mL, overnight H1N1, p=0.61
  MCP-1, ratio IL-28B/no IL-28B: 1.0
[4]; IL-28B 100 ng/mL, overnight H1N1, p=0.86
  IL-2, ratio IL-28B/no IL-28B: 1.1
[4]; IL-28B 100 ng/mL, overnight H1N1, p=0.92
  IL-4, ratio IL-28B/no IL-28B: 1.0
[4]; [8]
  GRO, ratio IL-28B/no IL-28B: 1.0
  IL-5, ratio IL-28B/no IL-28B: 1.0
  IL-9, ratio IL-28B/no IL-28B: 1.0
  IL-13, ratio IL-28B/no IL-28B: 1.0
[4]; [9]
  Fractalkine: 16.1 (3.2-60.2) pg/mL
  GRO: 3.2 (3.2-3.2) pg/mL
  IFN-α: 1290.8 (502.4-1969.9) pg/mL
  IFN-γ: 48.0 (13.9-133.3) pg/mL
  IL-1β: 0.6 (0.6-4.0) pg/mL
  IL-2: 61.5 (6.0-168.9) pg/mL
  IL-4: 0.6 (0.6-1.5) pg/mL
  IL-5: 0.6 (0.6-0.6) pg/mL
  IL-6: 104.0 (15.0-156.6) pg/mL
  IL-9: 0.6 (0.6-0.6) pg/mL
  IL-13: 0.6 (0.6-0.9) pg/mL
  IP-10: 8336.4 (7362.5-9289.1) pg/mL
  MCP-1: 0.5 (0.5-827.4) pg/mL
  MCP-3: 760.9 (398.3-2500.5) pg/mL
  MIP-1α: 321.4 (173.7-485.3) pg/mL
  TNF-α: 23.2 (0.7-44.8) pg/mL
  sCD40-L: 0.6 (0.6-77.7) pg/mL
[4]; in vitro
  Th1-cytokines (in words, abstract): increased Th1-cytokines (e.g. IFN-γ)

From article PMC4263767, “IL-28B is a Key Regulator of B- and T-Cell Vaccine Responses against Influenza” (PLoS Pathogens, 2014)
